Common to all, as to test: affinity for IL-3Rα extracellular domain protein; method not stated
Test [1] addresses T1, human IL-3Rα extracellular domain P61A (human, UniProt P26951 19-305).
T1 sequence: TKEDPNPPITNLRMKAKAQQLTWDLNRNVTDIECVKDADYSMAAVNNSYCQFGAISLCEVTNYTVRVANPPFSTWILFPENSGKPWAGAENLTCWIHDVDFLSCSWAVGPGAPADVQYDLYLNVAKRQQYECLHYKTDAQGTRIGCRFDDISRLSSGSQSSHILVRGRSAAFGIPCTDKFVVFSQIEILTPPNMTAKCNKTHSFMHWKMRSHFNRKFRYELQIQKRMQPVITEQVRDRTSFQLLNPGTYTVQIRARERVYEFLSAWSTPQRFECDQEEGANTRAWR

Test [2] has as its target T2, human IL-3Rα extracellular domain V53A (human, UniProt P26951 19-305).
T2 sequence: T1 sequence with V35A, A43P

In test [3] the target is T3, human IL-3Rα extracellular domain V277A (human, UniProt P26951 19-305).
T3 sequence: T1 sequence with A43P, V259A

The target in test [4] is T4, human IL-3Rα extracellular domain V277I (human, UniProt P26951 19-305).
T4 sequence: T1 sequence with A43P, V259I

Test [5] deals with T5, human IL-3Rα extracellular domain Y278F (human, UniProt P26951 19-305).
T5 sequence: T1 sequence with A43P, Y260F

For test [6], the target named is T6, human IL-3Rα extracellular domain E51A (human, UniProt P26951 19-305).
T6 sequence: T1 sequence with E33A, A43P

The target in test [7] is T7, human IL-3Rα extracellular domain E51Q (human, UniProt P26951 19-305).
T7 sequence: T1 sequence with E33Q, A43P

The target of test [8] is T8, human IL-3Rα extracellular domain N232T (human, UniProt P26951 19-305).
T8 sequence: T1 sequence with A43P, N214T

Test [9] has as its target T9, human IL-3Rα extracellular domain N232A (human, UniProt P26951 19-305).
T9 sequence: T1 sequence with A43P, N214A

The target of test [10] is T10, human IL-3Rα extracellular domain S59A (human, UniProt P26951 19-305).
T10 sequence: T1 sequence with S41A, A43P

For test [11], the target named is T11, wild type human IL-3Rα extracellular domain (human, UniProt P26951 19-305).
T11 construct: also called huIL-3Rα WT; WT
T11 sequence: T1 sequence with A43P

Substitutions are numbered along the chain they refer to.

B1: human IL-3 (hIL-3) (ligand)
chain: APMTQTTPLKTSWVNCSNMIDEIITHLKQPPLPLLDFNNLNGEDQDILMENNLRRPNLEAFNRAVKSLQNASAIESILKNLLPCLPLATAAPTRHPIHIKDGDWNEFRRKLTFYLKTLENAQAQQTTLSLAIF
B1: the Kd (as a rule, the equilibrium constant for the complex coming apart) in test [1] came out at 176 nM; in test [2] it was 588 nM; in [3], 219 nM; in test [4], 33 nM; in [5], 1860 nM; in test [6], 207 nM. Further, the Kd in test [7] was 213 nM; in test [8], 358 nM; in [9] it was 2040 nM; in test [10] it was 262 nM; in test [11], 125 nM.

Values taken from patent publication US20180208661A1 (CSL, published 2018).
